Here are results for one molecule from article PMC9896561.

This series has as its target T1, T4 DNA ligase (T4DL) (UniProt P00970 1-487).
T1 sequence: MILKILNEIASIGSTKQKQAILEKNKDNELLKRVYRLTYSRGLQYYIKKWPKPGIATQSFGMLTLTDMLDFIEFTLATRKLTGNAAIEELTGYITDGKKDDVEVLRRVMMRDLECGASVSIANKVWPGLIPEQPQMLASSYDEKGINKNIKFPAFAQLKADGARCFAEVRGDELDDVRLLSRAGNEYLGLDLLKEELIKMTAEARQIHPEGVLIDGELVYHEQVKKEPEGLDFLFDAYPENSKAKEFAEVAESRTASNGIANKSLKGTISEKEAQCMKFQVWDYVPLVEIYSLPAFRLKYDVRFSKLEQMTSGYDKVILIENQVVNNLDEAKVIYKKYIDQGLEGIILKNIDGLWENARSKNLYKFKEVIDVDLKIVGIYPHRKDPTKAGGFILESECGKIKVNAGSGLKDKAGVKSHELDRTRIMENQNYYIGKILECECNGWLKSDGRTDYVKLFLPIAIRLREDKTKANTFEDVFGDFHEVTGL
The series is described as follows: fluorescence anisotropy.

B1: DAS1M (structured_DNA)
DNA: ATCTCGACTAGTCAGTCTCCCCAGCTAAAAAAAAAAAAAGTTGGGGAAAAAAAAAATCCGAATGTCTCGGAT
modifications: 5' phosphate
As to B1, the Kd amounted to 1270 ± 300 nM.

For orientation: Kd means the constant that tells how readily two partners part at equilibrium. A high value points to weaker binding.
